Test results reported in the supplement of paper PMC10567573.
± gives the standard deviation.

Experiment: protein stability index of a GFP-peptide fusion (GPS, HEK-293T) (PSI 1-6); higher = more stable
[1] = treatment: DMSO, c terminus: a fixed tail appended
[2] = treatment: MLN4924 1 uM, 8 h, c terminus: a fixed tail appended
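Note: 24-mer peptide tiles fused after GFP, lentivirally expressed, FACS-sorted into six equal bins by GFP/DsRed ratio, decoded by Illumina sequencing, PSI is the read-weighted mean bin number.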

Row | Sequence | protein stability index [1] | protein stability index [2] | protein stability index (treatment: DMSO, c terminus: native) | protein stability index (treatment: MLN4924 1 uM, 8 h, c terminus: native)
1 | AAALKCQLCEKAPKEATVMCEQCD [TRIM9] | 5.33 ± 0.22 | 5.4 ± 0.15 | – | –
2 | AAETAAQGPTPRYFTWDEVAQRSG [FADS1] | 4.23 ± 0.23 | 4.11 ± 0.27 | – | –
3 | AAETRGAVEGAARTTPSRREITGV [PALM] | 4.86 ± 0.36 | 5.07 ± 0.18 | – | –
4 | AAQDRPMSPGDCPPETTETPKCSS [YJU2B] | 5.54 ± 0.24 | 5.3 ± 0.34 | – | –
5 | AARVGLLQYSTQVHTEFTLRNFNS [MATN2] | 2.37 ± 0.19 | 2.19 ± 0.28 | – | –
6 | ACAQLATGAACRLVEAVLSGEVLN [HDAC6] | 2.44 ± 0.53 | 2.65 ± 0.4 | – | –
7 | ACDLQPCPTEPPDDSCQDQPGTNC [ADAMTSL2] | 5.49 ± 0.34 | 5.51 ± 0.39 | – | –
8 | ACLVSCFQQLMVETCSCGYYLHPL [SCNN1D] | 2.91 ± 0.17 | 3.21 ± 0.19 | – | –
9 | ADEGSRNSRFQMLFTSFQEPPCEG [NETO1] | 3.98 ± 0.094 | 4.17 ± 0.22 | – | –
10 | ADISMIGQFGVGFYSAYLVAEKVV [HSP90AB1] | – | 2.86 ± 0.44 | – | –
11 | ADWLGLKDEDLDLFPASPTREAHR [FBF1] | 4.77 ± 0.21 | 4.61 ± 0.12 | – | –
12 | AEEIRIKGKYNISSEDYRQLELVI [KCNK9] | 2.25 ± 0.2 | 2.05 ± 0.38 | – | –
13 | AEEWYKSKYADLSDAANRNHEALR [PRPH] | 4.27 ± 0.21 | 4.43 ± 0.35 | – | –
14 | AELLKKQEELNRKAEELDRREREL [SCAMP3] | 5.43 ± 0.26 | 5.44 ± 0.33 | – | –
15 | AEQRGDNALKDARAKLDELEGALH [KRT71] | 5.16 ± 0.2 | 5.37 ± 0.29 | – | –
16 | AFEAARDLDACALVRGHRRRLLRR [ZSWIM9] | 4.5 ± 0.2 | 4.45 ± 0.21 | – | –
17 | AGARKIYAVEASTMAQHAEVLVKS [CARM1] | 3.79 ± 0.39 | 4.07 ± 0.58 | – | –
18 | AGFDAARGDPLGGCQVSPEGYAHL [HDAC6] | 3.75 ± 0.26 | 3.78 ± 0.2 | – | –
19 | AGGFSIRNQKGEQVFRLAFRSGAL [MYORG] | 1.77 ± 0.2 | 2.28 ± 0.39 | – | –
20 | AGIMLLALVCLLSCLLPSSEAKLY [SPACA3] | 2.94 ± 0.12 | 3.25 ± 0.48 | – | –
21 | AGLASGLLNQQSLKRSANQMGVSA [MED27] | 3.62 ± 0.06 | 3.69 ± 0.096 | – | –
22 | AGTGASRSSHSSDSGGSDVDLDPT [ELF3] | 5.59 ± 0.23 | 5.51 ± 0.22 | – | –
23 | AHKMKFSDLFSLAEEYEDSSTKPP [INTS3] | 4.22 ± 0.17 | 4.17 ± 0.1 | – | –

Row | Sequence | protein stability index [1] | protein stability index [2] | protein stability index (treatment: DMSO, c terminus: native) | protein stability index (treatment: MLN4924 1 uM, 8 h, c terminus: native)
24 | AIDRNYVPGKSLAVSCPGWSAVA [SNX12] | – | – | 2.73 ± 0.33 | 1.97 ± 0.31
25 | AIVQQVPAPSRMQMPQGNPLLLSH [SNX8] | 2.72 ± 0.38 | 2.7 ± 0.31 | – | –
26 | AKADTTSTVTPVPGQEKGSALEGR [EHMT1] | 5.3 ± 0.24 | 5.38 ± 0.12 | – | –
27 | AKGSLGTQIGFADLMGVLTKGVRE [FEM1A] | 2.49 ± 0.19 | 2.4 ± 0.3 | – | –
28 | AKGWGPCYSRQFITSCPCWLEILL [SMAD6] | 2.69 ± 0.29 | 2.8 ± 0.42 | – | –
29 | AKHLIASMLSKNPEDRPSLDDIIR [PLK2] | 2.61 ± 0.38 | 2.79 ± 0.24 | – | –
30 | AKQQKFIKAVTHQVKFGQQNPRQV [ZC3H15] | 3.19 ± 0.22 | 3.4 ± 0.3 | – | –
31 | ALCLEVRPTYFEMKNEKLLSKASE [RNF180] | 3.51 ± 0.21 | 3.67 ± 0.4 | – | –
32 | ALEKLRSEMEEEKRQAVNKAVANM [ZMYND11] | 4.42 ± 0.38 | 4.34 ± 0.36 | – | –
33 | ALGDIREVQKLVESGVDVNSQNEV [ANKRD40] | 5.28 ± 0.3 | 5.24 ± 0.29 | – | –
34 | ALLPSLSHCSQLTTLSFYGNSISI [PRAME] | 3.14 ± 0.66 | 3.14 ± 0.35 | – | –
35 | ALPVPVIVSNFNYFYHRETENEEQ [KCNA4] | 3.54 ± 0.15 | 3.57 ± 0.17 | – | –
36 | ALTGHLRTHSVIKEETNHSEMAED [IKZF1] | 5.38 ± 0.23 | 5.13 ± 0.31 | – | –
37 | ANKYLVEDVLLLNFEEMRALLDSL [KLHL14] | 2.34 ± 0.21 | 2.37 ± 0.19 | – | –
38 | APDRATAVATASRLGPYVLLEPEE [TRIB3] | 5.04 ± 0.31 | 5.04 ± 0.24 | – | –
39 | APMDAPRYQHGIAVIGNFLYVVGG [KLHL13] | 2.18 ± 0.36 | 2.25 ± 0.25 | – | –
40 | APSKKAAKDPGKGELPNHPKPAGG [FBF1] | 5.1 ± 0.43 | 5.53 ± 0.24 | – | –
41 | AQDDDRLREERKKAKKNKDKYVGV [CLINT1] | 5.27 ± 0.17 | 5.48 ± 0.38 | – | –
42 | AQQFALMAPLLFNGCRSGEIFAID [DCAF4] | 2.6 ± 0.72 | 2.64 ± 0.34 | – | –
43 | AQSLPGPCAAAREGRLERRECGLA [IRX6] | 4.42 ± 0.2 | 4.53 ± 0.38 | – | –
44 | ASADRTVIVWDGDTTRQVQRISCF [WDR41] | 2.25 ± 0.27 | 2.58 ± 0.26 | – | –
45 | ASLTIPLVPETEDDRKLAALLKFH [YJU2B] | 3.05 ± 0.24 | 3.41 ± 0.24 | – | –
46 | ASPRRLSNVSSSGSINLLESPQLA [MAP2] | 4.2 ± 0.2 | 4.12 ± 0.15 | – | –

Row | Sequence | protein stability index [1] | protein stability index [2] | protein stability index (treatment: DMSO, c terminus: native) | protein stability index (treatment: MLN4924 1 uM, 8 h, c terminus: native)
47 | ASREENQAGPEATTSDPQDLDMKK [PALM] | 5.53 ± 0.46 | 5.43 ± 0.42 | – | –
48 | ATITSRGSSLSGSLCSLLESQSTS [LURAP1L] | 3.49 ± 0.28 | 3.6 ± 0.32 | – | –
49 | ATLTTTSATSKLIHPDEDISLEER [ZNF207] | 5.23 ± 0.064 | 5.35 ± 0.27 | – | –
50 | AVADSIPQVLADLGSFESPANSET [PCDHGA10] | 5.07 ± 0.54 | 5.35 ± 0.2 | – | –
51 | AVFAVSAVVHEYALAVCLSFFYPV [SOAT1] | 3.23 ± 0.37 | 3.07 ± 0.23 | – | –
52 | AVGNSSGSGQNEESPRKRKKATEA [FBXO28] | 4.95 ± 0.34 | 5.29 ± 0.27 | – | –
53 | AVKLYNSGDFRSSTEDMERALSEY [P3H4] | 4.57 ± 0.4 | 4.14 ± 0.26 | – | –
54 | AVLEYLYTGMFTSSPDLDDMKLII [RHOBTB2] | 2.68 ± 0.6 | 2.53 ± 0.3 | – | –
55 | AVPEDLADRLVRVHGDPAVWWVSQ [FUT8] | 2.61 ± 0.29 | 2.65 ± 0.039 | – | –
56 | AVSDGRHMFVWGGYKSNQVRGLYD [KLHDC2] | 2.28 ± 0.58 | 2.27 ± 0.51 | – | –
57 | AVTDLLGRRQRKSEKRRDPPNGPN [WASL] | 4.06 ± 0.14 | 4.31 ± 0.29 | – | –
58 | AVVALTQDQPSEAATGGATLAQTI [HDAC6] | 4.27 ± 0.33 | 4.38 ± 0.24 | – | –
59 | AVVAVDRQAIFPDTWTLTEEHGLQ [PXN] | 3.35 ± 0.51 | 3.35 ± 0.34 | – | –
60 | AWNSPFYNCGEESLQSCMHFQPNS [NANOGP8] | 2.41 ± 0.13 | 2.43 ± 0.41 | – | –
61 | AYQEVFKPENISLRNKLRELCVKL [SMG5] | 2.24 ± 0.23 | 2.17 ± 0.35 | – | –
62 | CFITLTTIGFGDYVALQTKGALQK [KCNK9] | 2.97 ± 0.63 | 2.67 ± 0.59 | – | –
63 | CIYSEVMEALDLQPGLSFLNLGSG [PCMTD2] | 2.29 ± 0.34 | 2.33 ± 0.44 | – | –
64 | CMVEIVQKYDPDKDEWHKVFDLPE [KLHL13] | 2.52 ± 0.27 | 2.59 ± 0.24 | – | –
65 | CPPLPAGVSFHIDSAELEPGSQTA [FBXO34] | 5.03 ± 0.4 | 5.09 ± 0.2 | – | –
66 | CQDCGRAFNQNSSLGRHKRTHTGE [ZNF8] | 3.73 ± 0.44 | 3.42 ± 0.17 | – | –
67 | CRRCYDWIHRPGCRCKNSNTVYCK [SPRY1] | 2.82 ± 0.089 | 3.05 ± 0.13 | – | –
68 | CVPPSEFSEPSFITESYQTLHPIS [ETS1] | 2.98 ± 0.19 | 3.08 ± 0.16 | – | –
69 | DAENQKNWLDPAKEIKKQVRSGAW [EPB41L3] | 3.55 ± 0.5 | – | – | –

Row | Sequence | protein stability index [1] | protein stability index [2] | protein stability index (treatment: DMSO, c terminus: native) | protein stability index (treatment: MLN4924 1 uM, 8 h, c terminus: native)
70 | DCRYPYEYEGGHIKTAVNLPLERD [CDC25B] | 4.13 ± 0.23 | 4.14 ± 0.63 | – | –
71 | DDSSSESGSGNGSSTLNPSTSSST [NOL4L] | 5.57 ± 0.31 | 5.49 ± 0.2 | – | –
72 | DEAGGGAEGDSWEEEGFGSSSPVK [WEE1] | 5.3 ± 0.068 | 5.35 ± 0.26 | – | –
73 | DEDAGLPRPVQLDETHPYTVTSVS [NEK8] | 5.12 ± 0.19 | 5.23 ± 0.18 | – | –
74 | DEDLRRQMQDDEQKTRLLEDSVSR [PALM] | 5.46 ± 0.32 | 5.31 ± 0.38 | – | –
75 | DEEEEEEEEEEGRFYYSEDDHGDE [KCNA4] | 5.56 ± 0.14 | 5.55 ± 0.28 | – | –
76 | DEPGKGGFWRIDPQYAERLLSGAF [FOXJ1] | 2.6 ± 0.25 | 2.73 ± 0.34 | – | –
77 | DETLYQEFNGLKKMNPKLKTLLAI [CHIT1] | 2.3 ± 0.17 | 2.52 ± 0.47 | – | –
78 | DFGDMHSYVRSRKRLREEEAARLF [TRIB1] | 3.5 ± 0.3 | 3.85 ± 0.45 | – | –
79 | DFLIRDSESSPSDFSVSLKASGKN [NCK2] | 4.25 ± 0.25 | 4.4 ± 0.18 | – | –
80 | DFPAHRIVLAACSDYFCAMFTSEL [KLHL12] | 3.08 ± 0.41 | 3.27 ± 0.51 | – | –
81 | DFVNLMAYDFHGSWEKVTGHNSPL [CHIT1] | 1.9 ± 0.23 | 2.06 ± 0.19 | – | –
82 | DGHRPEWTFYPRFSSNIHTYHVGK [SPATS1] | 2.96 ± 0.077 | 3.01 ± 0.21 | – | –
83 | DGRSLSKLNLCEDGPCHKRRASIC [SCARA5] | 3.88 ± 0.33 | 3.93 ± 0.3 | – | –
84 | DHSQRICEVWACNLDEEMKKIRQV [CNOT7] | 3.43 ± 0.2 | 3.7 ± 0.18 | – | –
85 | DIDMTDYDDVRRCCSSADICPKCW [PRIM1] | 4.8 ± 0.41 | 4.84 ± 0.25 | – | –
86 | DLAKLVDQQNPTLGETPENSNLEE [ZNF449] | 5.47 ± 0.16 | 5.32 ± 0.24 | – | –
87 | DLAKTGCVDLTITNLLEGAVAFMP [AUP1] | 2.21 ± 0.11 | 2.05 ± 0.32 | – | –
88 | DLDSRTDSDIPEIPPSSDRTPEIL [CDS1] | 5.42 ± 0.21 | 5.51 ± 0.21 | – | –
89 | DLEDPLGGLLSYDEGGITKQPPVT [FBF1] | 4.41 ± 0.28 | 4.35 ± 0.43 | – | –
